Reference: publication PMC314469, “Protein Interaction Networks by Proteome Peptide Scanning” (PLoS Biology, 2004)

T1: amphyphisin SH3 (AMPH_HUMAN), P49418
T1 chain: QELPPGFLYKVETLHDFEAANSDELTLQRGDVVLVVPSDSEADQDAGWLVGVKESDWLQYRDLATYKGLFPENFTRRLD


Target: T1, amphyphisin SH3 (AMPH_HUMAN), P49418
Assay: SPOT array

| normalised SPOT signal, Boehringer light units (BLU); mean over the file's lines of this peptide | Binder |
| --- | --- |
| 60.1 | SRKNLKRPIAHLPS [Q13112 270-283] |
| 52.5 | SQQNFHRPVKVRKK [Q9UI45 537-550] |
| 35.4 | SSKPIKRPVLDPFI [Q96AA8 422-435] |
| 53 | STSFPRRPLAVEGG [O00124 234-247] |
| 214 | SRLTLLRPEKDGEA [Q9H7S7 483-496] |
| 45.1 | SQQPPSRPPHLPVE [Q9UPQ2 54-68] |
| 14100 | SQIPPQRPQRDQRV [Q13283 290-303] |
| 50.5 | SSSGPKRPQDKVAV [P21399 369-382] |
| 42 | STQSLKRPGTSQAG [O94820 555-568] |
| 1640 | SSPLLKRPVRTQAV [Q9Y5M0 381-394] |
| 18.6 | SSYTFKRPVTRITP [Q8WWY6 31-44] |
| 56.1 | SSTLPQKPPYSFID [Q9H0N0 213-227] |
| 1890 | SSEEPRRPLRSDMV [Q9H6D1 6-19] |
| 37.2 | SSSAPRRPSSLQSL [P39880 1446-1459] |
| 2350 | SSVRPPRPKKEPQT [Q9H875 7-20] |
| 236 | SRSPPKKPPKRTSS [O60585 365-379] |
| 51.9 | SSPGPKRPGNTLRK [O75962 1703-1716] |
| 43.6 | SSDWLRRPLGEDNQ [Q9Y6S1 96-109] |
| 119 | SSRDLSRPPKKGEL [O94930 369-382] |
| 31.8 | SSNTIRRPRNYSVG [O60825 472-485] |
| 71.5 | SSGILKRPQTLAIP [Q9Y2W3 232-245] |

| normalised SPOT signal, Boehringer light units (BLU); mean over the file's lines of this peptide | Binder |
| --- | --- |
| 81.4 | SSGPPPKPPVSSGS [Q9NR59 803-817] |
| 61.4 | STAGPLRPPPPGAG [Q9Y6T1 410-424] |
| 419 | AAVPPPRPPIPEER [Q16099 865-879] |
| 20600 | SRGPPRRPPRSVKL [Q96DR3 69-83] |
| 1270 | SREGPARPYRLKPG [Q9ULL4 1157-1170] |
| 60.5 | SDGNPRRPSPVLRH [P51172 134-147] |
| 118 | SQSFIIRPQKEGER [Q05397 355-368] |
| 51.9 | SSHSPYRPPTNYRN [Q8TEB6 103-117] |
| 78.5 | SQPGPAKPPAQPSG [Q9Y6V0 287-301] |
| 1550 | SQRRPRRPPTVFRL [Q96Q00 325-339] |
| 7270 | SSRRPVRPGRRGLG [Q14160 1547-1560] |
| 842 | SRLHFGRPRRADYL [Q13629 53-66] |
| 117 | SDKAFSRPDKLRLH [Q9NQV6 563-576] |
| 24.3 | SSVALKRPPPAPPV [P78325 741-754] |
| 112 | SVSFIGRPWRVVDG [Q12789 1979-1992] |
| 30.4 | SRNIFKRPLGSRIE [P12111 1320-1333] |
| 4730 | SSTFLQRPIRKPSK [Q9UI27 293-306] |
| 614 | SSPEPPRPAKRPRR [Q9P2A7 954-967] |
| 17 | SQNEPKRPMSGEYG [Q9Y6X4 283-296] |
| 77.5 | SSTNPFRPQKVSSF [P30670 54-67] |
| 36 | SVEPPKRPTSRLIM [Q9UMX9 24-37] |

target: endophilin SH3 (SH3G2_HUMAN), Q99962; assay: SPOT array

| normalised SPOT signal, Boehringer light units (BLU); mean over the file's lines of this peptide | Binder |
| --- | --- |
| 33.5 | SRKNLKRPIAHLPS [Q13112 270-283] |
| 99.7 | SQQNFHRPVKVRKK [Q9UI45 537-550] |
| 189 | SSKPIKRPVLDPFI [Q96AA8 422-435] |
| 132 | STSFPRRPLAVEGG [O00124 234-247] |
| 185 | SRLTLLRPEKDGEA [Q9H7S7 483-496] |
| 775 | SQQPPSRPPHLPVE [Q9UPQ2 54-68] |
| 15300 | SQIPPQRPQRDQRV [Q13283 290-303] |
| 50.4 | SSSGPKRPQDKVAV [P21399 369-382] |
| 5.6 | STQSLKRPGTSQAG [O94820 555-568] |
| 195 | SSPLLKRPVRTQAV [Q9Y5M0 381-394] |
| 89.6 | SSYTFKRPVTRITP [Q8WWY6 31-44] |
| 27.3 | SSTLPQKPPYSFID [Q9H0N0 213-227] |
| 110 | SSEEPRRPLRSDMV [Q9H6D1 6-19] |
| 1050 | SSSAPRRPSSLQSL [P39880 1446-1459] |
| 1060 | SSVRPPRPKKEPQT [Q9H875 7-20] |
| 2210 | SRSPPKKPPKRTSS [O60585 365-379] |
| 619 | SSPGPKRPGNTLRK [O75962 1703-1716] |
| 37.4 | SSDWLRRPLGEDNQ [Q9Y6S1 96-109] |
| 109 | SSRDLSRPPKKGEL [O94930 369-382] |
| 7.4 | SSNTIRRPRNYSVG [O60825 472-485] |
| 10.4 | SSGILKRPQTLAIP [Q9Y2W3 232-245] |

| normalised SPOT signal, Boehringer light units (BLU); mean over the file's lines of this peptide | Binder |
| --- | --- |
| 122 | SSGPPPKPPVSSGS [Q9NR59 803-817] |
| 1850 | STAGPLRPPPPGAG [Q9Y6T1 410-424] |
| 4290 | AAVPPPRPPIPEER [Q16099 865-879] |
| 10200 | SRGPPRRPPRSVKL [Q96DR3 69-83] |
| 1200 | SREGPARPYRLKPG [Q9ULL4 1157-1170] |
| 577 | SDGNPRRPSPVLRH [P51172 134-147] |
| 87.4 | SQSFIIRPQKEGER [Q05397 355-368] |
| 681 | SSHSPYRPPTNYRN [Q8TEB6 103-117] |
| 130 | SQPGPAKPPAQPSG [Q9Y6V0 287-301] |
| 10900 | SQRRPRRPPTVFRL [Q96Q00 325-339] |
| 1850 | SSRRPVRPGRRGLG [Q14160 1547-1560] |
| 202 | SRLHFGRPRRADYL [Q13629 53-66] |
| 54.6 | SDKAFSRPDKLRLH [Q9NQV6 563-576] |
| 21.2 | SSVALKRPPPAPPV [P78325 741-754] |
| 78.1 | SVSFIGRPWRVVDG [Q12789 1979-1992] |
| 0.9 | SRNIFKRPLGSRIE [P12111 1320-1333] |
| 341 | SSTFLQRPIRKPSK [Q9UI27 293-306] |
| 181 | SSPEPPRPAKRPRR [Q9P2A7 954-967] |
| 21.5 | SQNEPKRPMSGEYG [Q9Y6X4 283-296] |
| 1350 | SSTNPFRPQKVSSF [P30670 54-67] |
| 480 | SVEPPKRPTSRLIM [Q9UMX9 24-37] |
